Experimental data from publication PMC10663500.

T1: mouse programmed cell death protein 1 C60S (aa 25-167) Fc fusion protein, Q02242
T1 chain: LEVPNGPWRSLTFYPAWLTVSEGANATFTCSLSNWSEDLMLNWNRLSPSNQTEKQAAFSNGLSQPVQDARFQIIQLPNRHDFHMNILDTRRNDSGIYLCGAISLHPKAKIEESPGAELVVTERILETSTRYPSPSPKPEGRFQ


How the values were obtained:
[1] = molecular target: T1, mouse programmed cell death protein 1 …; assay: BreviA (SPR); conditions: chain shown with the change;, read off a plot; for Kd: parent: est. 1.2e-7 M
[2] = molecular target: T2, human programmed cell death protein 1 C93S (aa 24-167), Q15116; assay: SPR; conditions: chain shown with the change; top curve (taken as 1024 nM hPD-1), read at end of association, about 570 s; antibody immobilized as ligand; parent: est. 740; read off a plot
T2 sequence (Q15116 24-167 C93S): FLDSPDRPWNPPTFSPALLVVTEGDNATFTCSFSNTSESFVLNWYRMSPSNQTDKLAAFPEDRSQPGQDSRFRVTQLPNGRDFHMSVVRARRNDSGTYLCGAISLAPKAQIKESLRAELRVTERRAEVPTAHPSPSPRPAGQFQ

[3] = molecular target: T2, human programmed cell death protein 1 …; assay: BreviA (SPR); conditions: chain shown with the change;; parent: est. 910 pM; read off a plot

| Binder | Kd [1] [nM] | response [2] [RU] | koff ([1]; parent: est. 5.9e-3 s-1) [s⁻¹] | Kd [3] [nM] |
| --- | --- | --- | --- | --- |
| toripalimab Fab (wild-type) L:L101A (protein) chain 1: QGQLVQSGAEVKKPGASVKVSCKASGYTFTDYEMHWVRQAPIHGLEWIGVIESETGGTAYNQKFKGRVTITADKSTSTAYMELSSLRSEDTAVYYCAREGITTVATTYYWYFDVWGQGTTVTVSS chain 2: DVVMTQSPLSLPVTLGQPASISCRSSQSIVHSNGNTYLEWYLQKPGQSPQLLIYKVSNRFSGVPDRFSGSGSGTDFTLKISRVEAEDVGVYYCFQGSHVPATFGQGTKLEIK | 26 | – | – | – |
| toripalimab Fab (wild-type) L:P100H (protein) chain 1: QGQLVQSGAEVKKPGASVKVSCKASGYTFTDYEMHWVRQAPIHGLEWIGVIESETGGTAYNQKFKGRVTITADKSTSTAYMELSSLRSEDTAVYYCAREGITTVATTYYWYFDVWGQGTTVTVSS chain 2: DVVMTQSPLSLPVTLGQPASISCRSSQSIVHSNGNTYLEWYLQKPGQSPQLLIYKVSNRFSGVPDRFSGSGSGTDFTLKISRVEAEDVGVYYCFQGSHVHLTFGQGTKLEIK | 1 | 470 | – | – |
| toripalimab Fab (wild-type) L:V99A (protein) chain 1: QGQLVQSGAEVKKPGASVKVSCKASGYTFTDYEMHWVRQAPIHGLEWIGVIESETGGTAYNQKFKGRVTITADKSTSTAYMELSSLRSEDTAVYYCAREGITTVATTYYWYFDVWGQGTTVTVSS chain 2: DVVMTQSPLSLPVTLGQPASISCRSSQSIVHSNGNTYLEWYLQKPGQSPQLLIYKVSNRFSGVPDRFSGSGSGTDFTLKISRVEAEDVGVYYCFQGSHAPLTFGQGTKLEIK | – | – | 0.00036 | – |
| toripalimab Fab (wild-type) L:V99G (protein) chain 1: QGQLVQSGAEVKKPGASVKVSCKASGYTFTDYEMHWVRQAPIHGLEWIGVIESETGGTAYNQKFKGRVTITADKSTSTAYMELSSLRSEDTAVYYCAREGITTVATTYYWYFDVWGQGTTVTVSS chain 2: DVVMTQSPLSLPVTLGQPASISCRSSQSIVHSNGNTYLEWYLQKPGQSPQLLIYKVSNRFSGVPDRFSGSGSGTDFTLKISRVEAEDVGVYYCFQGSHGPLTFGQGTKLEIK | – | 770 | – | 2 |
